Earlier results on one substance are cited in paper PMC7677405.

The data set concerns the target insulin receptor (Homo sapiens) (UniProt P06213).
UniProt P06213, sequence (P06213 763-1382): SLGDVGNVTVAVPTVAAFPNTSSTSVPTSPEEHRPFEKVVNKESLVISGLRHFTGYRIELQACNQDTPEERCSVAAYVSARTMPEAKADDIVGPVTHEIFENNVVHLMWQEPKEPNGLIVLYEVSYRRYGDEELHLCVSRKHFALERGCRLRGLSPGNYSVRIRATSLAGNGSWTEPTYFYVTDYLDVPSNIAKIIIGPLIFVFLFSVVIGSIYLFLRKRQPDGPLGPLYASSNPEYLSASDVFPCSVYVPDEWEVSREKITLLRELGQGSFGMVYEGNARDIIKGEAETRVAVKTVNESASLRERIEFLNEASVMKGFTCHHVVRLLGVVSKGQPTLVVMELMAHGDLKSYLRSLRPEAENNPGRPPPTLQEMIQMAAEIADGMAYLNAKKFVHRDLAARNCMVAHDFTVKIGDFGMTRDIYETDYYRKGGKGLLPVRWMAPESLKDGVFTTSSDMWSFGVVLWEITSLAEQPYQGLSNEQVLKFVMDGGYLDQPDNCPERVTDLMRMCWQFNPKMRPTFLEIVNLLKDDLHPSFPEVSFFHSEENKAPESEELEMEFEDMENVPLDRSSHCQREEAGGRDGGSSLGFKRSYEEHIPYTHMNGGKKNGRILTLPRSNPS

insulin, sequence (P01308 90-110): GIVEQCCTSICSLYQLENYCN

On to insulin (from UniProt P01308), for which the Kd – broadly, a measure of binding affinity in units of concentration – is 28 nM.
